Reference: US20100015637A1 (AbbVie / Abbott, published 2010)
Blank lines part the entries; values can stand above or below the molecule they belong to.

What was measured:
[1] = molecular target: human PlGF-1 comprising amino acids 1-137 produced in human embryonic kidney cells (human) (UniProt P49763); assay: Format 2 …, capture MAb264, detection Pb264; sFlt-1 4600 pmol/L (ratio 150)
[2] = molecular target: human PlGF-1 comprising amino acids 1-137 produced in human embryonic kidney cells (human) (UniProt P49763); assay: Format 3 Quantikine ELISA, capture MAb264, detection Pb264; sFlt-1 0 pmol/L (ratio 0)
[3] = molecular target: human PlGF-1 comprising amino acids 1-137 produced in human embryonic kidney cells (human) (UniProt P49763); assay: Format 2 …, capture MAb264, detection Pb264; sFlt-1 9200 pmol/L (ratio 300)
[4] = molecular target: human PlGF-1 comprising amino acids 1-137 produced in human embryonic kidney cells (human) (UniProt P49763); assay: Format 1 …, capture 2-826-335, detection 1-255-713; sFlt-1 77 pmol/L (ratio 2.5)
[5] = molecular target: human PlGF-1 comprising amino acids 1-137 produced in human embryonic kidney cells (human) (UniProt P49763); assay: Format 1 …, capture 2-826-335, detection 1-255-713; sFlt-1 0 pmol/L (ratio 0)
[6] = molecular target: human PlGF-1 comprising amino acids 1-137 produced in human embryonic kidney cells (human) (UniProt P49763); assay: Format 3 Quantikine ELISA, capture MAb264, detection Pb264; sFlt-1 2300 pmol/L (ratio 75)
[7] = molecular target: human PlGF-1 comprising amino acids 1-137 produced in human embryonic kidney cells (human) (UniProt P49763); assay: Format 2 …, capture MAb264, detection Pb264; sFlt-1 1533 pmol/L (ratio 50)
[8] = molecular target: T1, CHO human PlGF-1 comprising amino acids 1-137 (human PlGF-1-His (1-131), CHO 6305) (human, UniProt P49763 19-221, N-glycans at N21 (completely glycosylated) and N89 (partially glycosylated)); assay: … sandwich, capture MAb255, detection pAb264; antigen 60 pg/mL
T1 construct: Mature human PlGF-1 with 6xHis tag (137 amino acids); also called CHO (1-137)
T1 sequence: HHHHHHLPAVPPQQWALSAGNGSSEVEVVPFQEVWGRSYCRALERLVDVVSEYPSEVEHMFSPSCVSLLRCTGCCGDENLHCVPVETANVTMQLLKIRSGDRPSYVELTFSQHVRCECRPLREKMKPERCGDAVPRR

[9] = molecular target: T2, CHO human PlGF-1 fragment (comprising amino acids 17-131; ATCC PTA-8540) (human, UniProt P49763 35-221); assay: as above
T2 sequence: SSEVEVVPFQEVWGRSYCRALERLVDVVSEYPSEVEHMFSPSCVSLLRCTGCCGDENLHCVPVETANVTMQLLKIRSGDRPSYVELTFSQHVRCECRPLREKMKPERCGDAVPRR

[10] = molecular target: T3, human PlGF-1 comprising amino acids 1-137 produced in human embryonic kidney cells (human, UniProt P49763 19-221); assay: as above
T3 construct: Mature human PlGF-1 with 6xHis tag; also called HEK (1-137); full length HEK human PlGF-1 (1-137)
T3 sequence: T1 sequence

[11] = molecular target: T4, human PlGF-1 fragment (comprising amino acids 17-131) produced in human embryonic kidney cells (human, UniProt P49763 35-221); assay: as above
T4 sequence: T2 sequence

[12] = molecular target: recombinant human PlGF-1 (comprising amino acids 1-131) expressed in E. coli (R&D Systems) (human) (UniProt P49763); assay: … sandwich, capture MAb255, detection MAb826; antigen 1500 pg/mL
[13] = molecular target: T4, human PlGF-1 fragment (comprising amino …); assay: … sandwich, capture MAb255, detection MAb826; antigen 750 pg/mL
In short: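 Values are chemiluminescent relative light units (RLU) from a sandwich immunoassay of human PlGF-1 antigen preparations, some of them recombinant forms made in CHO cells. Antigen levels ran from 0 to 1500 pg/mL. Capture was by a monoclonal anti-human PlGF-1 antibody bound to magnetic microparticles, and detection was by an acridinium ester-labeled monoclonal anti-human PlGF-1 antibody.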

[14] = molecular target: recombinant human PlGF-1 (comprising amino acids 1-131) expressed in E. coli (R&D Systems) (human) (UniProt P49763); assay: … sandwich, capture MAb255, detection MAb826; antigen 15 pg/mL
[15] = molecular target: T1, CHO human PlGF-1 comprising amino acids …; assay: … sandwich, capture MAb826, detection pAb264; antigen 15 pg/mL
[16] = molecular target: T2, CHO human PlGF-1 fragment (comprising …); assay: as above
[17] = molecular target: T3, human PlGF-1 comprising amino acids …; assay: as above
[18] = molecular target: T4, human PlGF-1 fragment (comprising amino …); assay: as above
[19] = molecular target: recombinant human PlGF-1 (comprising amino acids 1-131) expressed in E. coli (R&D Systems) (human) (UniProt P49763); assay: … sandwich, capture MAb826, detection pAb264; antigen 250 pg/mL

- % Inhibition [1]: 96.5%
- PlGF-1 Measured [1]: 27.5 pg/mL
- % Inhibition [2]: 0%
- PlGF-1 Measured [2]: 865 pg/mL
- % Inhibition [3]: 97.5%
- PlGF-1 Measured [3]: 20 pg/mL
- % Inhibition [4]: 41.9%
- PlGF-1 Measured [4]: 594 pg/mL
- % Inhibition [5]: 0%
- PlGF-1 Measured [5]: 1020 pg/mL
- % Inhibition [6]: 75.9%
- PlGF-1 Measured [6]: 209 pg/mL
- % Inhibition [7]: 93.6%
- PlGF-1 Measured [7]: 50.4 pg/mL
Molecule: native sFlt-1, isolated from human placental tissue (from UniProt P17948 27-687) (receptor)

- RLU [8]: 71600 RLU
- RLU [9]: 81200 RLU
- RLU [10]: 165000 RLU
- RLU [11]: 107000 RLU
- RLU [12]: 1.35e+06 RLU
- RLU [13]: 576000 RLU
- RLU [14]: 22700 RLU
B1: monoclonal antibody 1-255-713 (produced by murine hybridoma cell line 1-255-713, ATCC PTA-8536) (antibody, mouse IgG2a, V domains shown)
VH: QVHLQQSGAELMKPGASVKISCKATGYTFSSYWIEWVKQRPGHGLEWIGEILPGSVSNNFNEKFKDKATLTADPSSNTAYIQVSSLTSEDSAVYYCARSTGFYYGGNYFDHWGQGTTLAVSS
VL: DVVMTQTPLSLPVSPGDQASISCRSSQSLVHSNGHTYLHWYLQKPGQSPKLLIYKVSNRFSGVPDRVSGSGSGTDFTLKISRVEAEDLGVYFCSQSTHVPPTFGGGTKLEIKR
notes: also called MAb255

- RLU [15]: 10100 RLU
- RLU [16]: 11200 RLU
- RLU [17]: 15500 RLU
- RLU [18]: 12800 RLU
- RLU [19]: 231000 RLU
B2: monoclonal antibody 2-826-335 (produced by murine hybridoma cell line 2-826-335, ATCC PTA-8539) (antibody, mouse IgG1, V domains shown)
VH: QVQLKQSGPGLVQPSQSLSITCTVSGFSLTTYGIHWVRQSPGKGLEWLGVMWSGGDTDYDAAFISRLSISKDNSKSQVFFKMNSLQANDTGIYYCARYRFYGMDYWGQGTSVTVSS
VL: AIQMTQSSSSFSVSLGDRVTITCKASEDIYNRFAWYQQKPGNAPRLLISGAASLEAGVPSRFSGSGSGQDYTLSITSLQTEDVATYYCQQYWSTPWTFGGGTKLEIKR
notes: also called MAb826
